This is an account of results in publication PMC5446193.

In general, kon refers to the second-order rate constant of association. High values mean fast association, low ones slow association.

Assay [1] deals with TAT-Troponin. Put plainly: BLI. On the technique in general: BLI is a label-free optical method that tracks binding on a fibre tip over time.
Assay [2] addresses TAT-Troponin. As to the kind of experiment: BLI; after the dissociation phase the sensors (1000 nM analyte samples) were moved into binding buffer with 10 mM EDTA, nm shift measured for 300 s; 25°C.

As to Troponin inhibitory peptide-myoglobin, the kon with TAT-Troponin [1] amounted to 3700 M⁻¹ s⁻¹. Besides, the koff (EDTA) in the assay with TAT-Troponin [2] was found to be 0.018 s⁻¹.
